To fix the notation:
B1: glmS ribozyme (parent)
chain: AUAAAAGCGCCAGAACUACAGAAAUGUAGUUGACGAGGAGGAGGUUUAUCGAAUUUUCGGCGGAUGCCUCCAAA

± gives the standard error. Variants at the floor of the assay were thinned out.

Holding throughout (details): with glucosamine-6-phosphate
The variants in data set [1] derive from B1. Briefly: self-cleavage kobs at 40 uM GlcN6P; higher = faster cleavage; RNA array. The procedure, abridged:
(§1)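 In situ transcription by E. coli RNA polymerase produced barcoded ribozyme variants on sequenced MiSeq chips, and a hybridised Cy3 probe tracked them at 37 °C. Glucosamine-6-phosphate was flowed in at 40 μM to 10 mM in HEPES/KCl/Mg(OAc)2 buffer. kcat and KM were taken from weighted Michaelis–Menten fits of kobs values from exponential decay fits.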

Data set [2] covers variants of B1. As to the kind of experiment: self-cleavage kobs at 160 uM GlcN6P; higher = faster cleavage; RNA array. The procedure, abridged:
as §1

Data set [3] covers variants of B1. As to the kind of experiment: self-cleavage kobs at 640 uM GlcN6P; higher = faster cleavage; RNA array. The procedure, abridged:
as §1

The variants in data set [4] derive from B1. As to the kind of experiment: self-cleavage kobs at 2500 uM GlcN6P; higher = faster cleavage; RNA array. In short, it runs like this: as §1
In data set [5] the parent is B1. Briefly: self-cleavage kobs at 10000 uM GlcN6P; higher = faster cleavage; RNA array. The procedure, abridged: as §1

For U54C C71U, the “self-cleavage kobs at 40 uM GlcN6P” value with glucosamine-6-phosphate [1] amounted to 0.000802 ± 8.6e-05 s⁻¹. Further, the “self-cleavage kobs at 160 uM GlcN6P” value with glucosamine-6-phosphate [2] is 0.00142 ± 0.00023 s⁻¹. Also, the “self-cleavage kobs at 640 uM GlcN6P” value with glucosamine-6-phosphate [3] was determined as 0.00401 ± 0.00061 s⁻¹. For the same variant, the “self-cleavage kobs at 2500 uM GlcN6P” value with glucosamine-6-phosphate [4] was determined as 0.0101 ± 0.0027 s⁻¹. The “self-cleavage kobs at 10000 uM GlcN6P” value with glucosamine-6-phosphate [5] stood at 0.036 ± 0.0094 s⁻¹.
As to G9C G37U, the “self-cleavage kobs at 40 uM GlcN6P” value with glucosamine-6-phosphate [1] is below 1e-05 s⁻¹. The “self-cleavage kobs at 160 uM GlcN6P” value with glucosamine-6-phosphate [2] was below 1e-05 s⁻¹. In the data set with glucosamine-6-phosphate [3], the “self-cleavage kobs at 640 uM GlcN6P” value is below 1e-05 s⁻¹. Moreover, the “self-cleavage kobs at 2500 uM GlcN6P” value with glucosamine-6-phosphate [4] was below 1e-05 s⁻¹.
Take A53G G66A C67A: the “self-cleavage kobs at 40 uM GlcN6P” value with glucosamine-6-phosphate [1] turned out to be 0.000154 ± 2.9e-05 s⁻¹. Besides, the “self-cleavage kobs at 2500 uM GlcN6P” value with glucosamine-6-phosphate [4] was determined as 0.0011 ± 0.0002 s⁻¹. For the same variant, the “self-cleavage kobs at 10000 uM GlcN6P” value with glucosamine-6-phosphate [5] is 0.0038 ± 0.00083 s⁻¹.
Take G32C G44C U55C C68A C70U: in the data set with glucosamine-6-phosphate [1], the “self-cleavage kobs at 40 uM GlcN6P” value was below 1e-05 s⁻¹. Also, in the data set with glucosamine-6-phosphate [4], the “self-cleavage kobs at 2500 uM GlcN6P” value is below 1e-05 s⁻¹.
On to G35A U57G, for which, in the data set with glucosamine-6-phosphate [1], the “self-cleavage kobs at 40 uM GlcN6P” value is below 1e-05 s⁻¹.
G13A G63A: in the data set with glucosamine-6-phosphate [1], the “self-cleavage kobs at 40 uM GlcN6P” value was below 1e-05 s⁻¹. In the data set with glucosamine-6-phosphate [2], the “self-cleavage kobs at 160 uM GlcN6P” value is below 1e-05 s⁻¹. The “self-cleavage kobs at 10000 uM GlcN6P” value with glucosamine-6-phosphate [5] is below 1e-05 s⁻¹.
Regarding C16G G40A A64C, the “self-cleavage kobs at 40 uM GlcN6P” value with glucosamine-6-phosphate [1] was below 1e-05 s⁻¹. In addition, in the data set with glucosamine-6-phosphate [5], the “self-cleavage kobs at 10000 uM GlcN6P” value is below 1e-05 s⁻¹.
Take C11G A53U: the “self-cleavage kobs at 40 uM GlcN6P” value with glucosamine-6-phosphate [1] is below 1e-05 s⁻¹.
G59U C61A: the “self-cleavage kobs at 40 uM GlcN6P” value with glucosamine-6-phosphate [1] was below 1e-05 s⁻¹. For the same variant, in the data set with glucosamine-6-phosphate [2], the “self-cleavage kobs at 160 uM GlcN6P” value is below 1e-05 s⁻¹. Further, in the data set with glucosamine-6-phosphate [3], the “self-cleavage kobs at 640 uM GlcN6P” value is below 1e-05 s⁻¹. In addition, in the data set with glucosamine-6-phosphate [5], the “self-cleavage kobs at 10000 uM GlcN6P” value is below 1e-05 s⁻¹.
With C11U G32C, the “self-cleavage kobs at 40 uM GlcN6P” value with glucosamine-6-phosphate [1] is below 1e-05 s⁻¹. In the data set with glucosamine-6-phosphate [2], the “self-cleavage kobs at 160 uM GlcN6P” value was below 1e-05 s⁻¹. For the same variant, the “self-cleavage kobs at 640 uM GlcN6P” value in the data set with glucosamine-6-phosphate [3] was below 1e-05 s⁻¹. Further, in the data set with glucosamine-6-phosphate [5], the “self-cleavage kobs at 10000 uM GlcN6P” value was below 1e-05 s⁻¹.
Turning to G13U C16U C19A G40U, the “self-cleavage kobs at 40 uM GlcN6P” value with glucosamine-6-phosphate [1] is below 1e-05 s⁻¹. Also, in the data set with glucosamine-6-phosphate [2], the “self-cleavage kobs at 160 uM GlcN6P” value was below 1e-05 s⁻¹. The “self-cleavage kobs at 640 uM GlcN6P” value in the data set with glucosamine-6-phosphate [3] was below 1e-05 s⁻¹. Also, the “self-cleavage kobs at 10000 uM GlcN6P” value with glucosamine-6-phosphate [5] was below 1e-05 s⁻¹.
Turning to C8U A39U, the “self-cleavage kobs at 40 uM GlcN6P” value with glucosamine-6-phosphate [1] was below 1e-05 s⁻¹. Besides, the “self-cleavage kobs at 160 uM GlcN6P” value in the data set with glucosamine-6-phosphate [2] was below 1e-05 s⁻¹. Further, in the data set with glucosamine-6-phosphate [4], the “self-cleavage kobs at 2500 uM GlcN6P” value is below 1e-05 s⁻¹.
For the variant A12C A33C A39C, in the data set with glucosamine-6-phosphate [1], the “self-cleavage kobs at 40 uM GlcN6P” value is below 1e-05 s⁻¹.
Regarding A6G A14G A39C, the “self-cleavage kobs at 40 uM GlcN6P” value in the data set with glucosamine-6-phosphate [1] is below 1e-05 s⁻¹. For the same variant, the “self-cleavage kobs at 2500 uM GlcN6P” value with glucosamine-6-phosphate [4] amounted to 9.9e-05 ± 2.3e-05 s⁻¹. Also, in the data set with glucosamine-6-phosphate [5], the “self-cleavage kobs at 10000 uM GlcN6P” value turned out to be 0.000209 ± 4.5e-05 s⁻¹.
Regarding C10A G41C, the “self-cleavage kobs at 40 uM GlcN6P” value with glucosamine-6-phosphate [1] was below 1e-05 s⁻¹. Besides, the “self-cleavage kobs at 160 uM GlcN6P” value in the data set with glucosamine-6-phosphate [2] is below 1e-05 s⁻¹. The “self-cleavage kobs at 640 uM GlcN6P” value with glucosamine-6-phosphate [3] was below 1e-05 s⁻¹. The “self-cleavage kobs at 2500 uM GlcN6P” value with glucosamine-6-phosphate [4] was below 1e-05 s⁻¹. Moreover, the “self-cleavage kobs at 10000 uM GlcN6P” value with glucosamine-6-phosphate [5] is below 1e-05 s⁻¹.
U49C A52C: the “self-cleavage kobs at 40 uM GlcN6P” value with glucosamine-6-phosphate [1] was below 1e-05 s⁻¹. The “self-cleavage kobs at 160 uM GlcN6P” value with glucosamine-6-phosphate [2] was below 1e-05 s⁻¹. Also, the “self-cleavage kobs at 2500 uM GlcN6P” value in the data set with glucosamine-6-phosphate [4] was below 1e-05 s⁻¹. The “self-cleavage kobs at 10000 uM GlcN6P” value with glucosamine-6-phosphate [5] was below 1e-05 s⁻¹.
For the variant C8U G29C C50A, the “self-cleavage kobs at 40 uM GlcN6P” value with glucosamine-6-phosphate [1] is below 1e-05 s⁻¹. Moreover, the “self-cleavage kobs at 640 uM GlcN6P” value with glucosamine-6-phosphate [3] is below 1e-05 s⁻¹.
For the variant A6C U56C, the “self-cleavage kobs at 40 uM GlcN6P” value with glucosamine-6-phosphate [1] was below 1e-05 s⁻¹. Further, in the data set with glucosamine-6-phosphate [2], the “self-cleavage kobs at 160 uM GlcN6P” value is below 1e-05 s⁻¹.
In the case of C10G G51A, in the data set with glucosamine-6-phosphate [1], the “self-cleavage kobs at 40 uM GlcN6P” value is below 1e-05 s⁻¹. The “self-cleavage kobs at 640 uM GlcN6P” value with glucosamine-6-phosphate [3] is below 1e-05 s⁻¹. Further, the “self-cleavage kobs at 2500 uM GlcN6P” value with glucosamine-6-phosphate [4] was below 1e-05 s⁻¹. Further, the “self-cleavage kobs at 10000 uM GlcN6P” value in the data set with glucosamine-6-phosphate [5] is below 1e-05 s⁻¹.
Turning to C67U C71G, the “self-cleavage kobs at 40 uM GlcN6P” value with glucosamine-6-phosphate [1] worked out at 1.88e-05 ± 9.1e-06 s⁻¹. In addition, the “self-cleavage kobs at 160 uM GlcN6P” value with glucosamine-6-phosphate [2] was 3.83e-05 ± 1.2e-05 s⁻¹. For the same variant, the “self-cleavage kobs at 640 uM GlcN6P” value in the data set with glucosamine-6-phosphate [3] stood at 4.78e-05 ± 5.4e-06 s⁻¹. Moreover, in the data set with glucosamine-6-phosphate [4], the “self-cleavage kobs at 2500 uM GlcN6P” value is 0.00068 ± 0.00033 s⁻¹. In addition, in the data set with glucosamine-6-phosphate [5], the “self-cleavage kobs at 10000 uM GlcN6P” value amounted to 5.12e-05 ± 5.1e-06 s⁻¹.

For the origin of these results see the supplement of paper PMC7125110.
